Target: T1, PPARα (Homo sapiens, UniProt Q07869)
T1 construct: expressed in transfected cells; host or cells: CV-1 (African green monkey kidney)
T1 sequence (Q07869 1-468): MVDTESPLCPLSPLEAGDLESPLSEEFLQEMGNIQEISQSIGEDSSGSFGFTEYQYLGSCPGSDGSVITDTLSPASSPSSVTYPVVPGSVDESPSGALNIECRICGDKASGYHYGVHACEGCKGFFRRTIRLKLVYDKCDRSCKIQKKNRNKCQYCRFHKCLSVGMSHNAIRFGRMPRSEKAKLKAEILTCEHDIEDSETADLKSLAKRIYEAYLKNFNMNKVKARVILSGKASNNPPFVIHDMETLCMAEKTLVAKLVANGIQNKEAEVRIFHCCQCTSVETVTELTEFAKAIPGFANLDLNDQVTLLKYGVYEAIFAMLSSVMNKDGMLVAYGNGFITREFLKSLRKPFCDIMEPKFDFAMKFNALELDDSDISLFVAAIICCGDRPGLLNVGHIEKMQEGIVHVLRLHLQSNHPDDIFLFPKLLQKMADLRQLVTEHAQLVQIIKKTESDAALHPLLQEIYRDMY
T1 sequence (P19793 1-462 partner): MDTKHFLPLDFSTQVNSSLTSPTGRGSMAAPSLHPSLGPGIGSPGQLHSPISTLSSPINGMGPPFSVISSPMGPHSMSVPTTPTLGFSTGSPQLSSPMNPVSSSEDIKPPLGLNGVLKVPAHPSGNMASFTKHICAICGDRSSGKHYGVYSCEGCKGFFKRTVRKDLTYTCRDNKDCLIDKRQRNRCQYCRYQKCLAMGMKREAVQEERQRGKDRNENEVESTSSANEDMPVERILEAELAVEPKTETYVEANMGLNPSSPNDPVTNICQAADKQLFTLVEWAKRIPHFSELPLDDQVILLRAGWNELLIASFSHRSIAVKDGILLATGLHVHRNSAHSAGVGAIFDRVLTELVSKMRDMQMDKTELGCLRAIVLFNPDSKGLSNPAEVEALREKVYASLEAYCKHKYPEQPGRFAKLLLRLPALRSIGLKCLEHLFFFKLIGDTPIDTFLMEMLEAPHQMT
Assay: Reporter gene assay, ERRγ3 coexisted with PPARα, pGVP2-PPRE1 in CV-1 cells
Format: cell-based
Settings: 10^−5 M bezafibrate, FIG. 24
Procedure: Transfection was performed as follows: CV-1 cells were resuspended in DMEM supplemented with 10% fetal bovine serum, 2000 U/l of penicillin G, and 100 mg/l of streptomycin to a concentration of 2×10^5 cells/2.5 ml. This was then seeded to a 6-well plate at 2.5 ml per well, and incubated for 18-24 hours in a CO2 incubator at 37° C. and 5% CO2. 1 μg of each of the expression plasmids for the transcription factors, the luciferase reporter plasmid, and another luciferase reporter plasmid used for normalization of the measured values (pRL-TK), were dissolved in Opti-MEM (Gibco BRL), to a total of 150 μl. […] Luciferase activity was measured using the Dual-Luciferase™ Reporter Assay System (Promega). […] The protocol for measurement was as follows: 50 μl of Luciferase Assay Reagent II was added to each well, stirred for 0.3 seconds, and measured for one second. 50 μl of Stop&Glo™ Reagent was then added, stirred for 0.3 seconds, and measured for one second. The measured values for firefly luciferase activity were corrected by dividing by the value for the Renilla luciferase activity, the internal control. Average values and standard errors were calculated from triplicate samples.
The effect of ligands on the function of ERRγ3 in enhancing the transcriptional activation function of peroxisome proliferator activated receptor (PPAR) α, β, or γ was evaluated using the reporter gene assay (FIG. 24). […]

B1: ERRγ3: novel ERRγ isoform, nuclear receptor protein of 396 amino acids (SEQ ID NO: 2) lacking part of the DNA binding domain (protein, listed as Homo sapiens)
chain: MSNKDRHIDSSCSSFIKTEPSSPASLTDSVNHHSPGGSSDASGSYSSTMNGHQNGLDSPPLYPSAPILGGSGPVRKLYDDCSSTIVEDPQTKCEYMLNSMPKRLCLVCGDIASGYHYGVASCEACKAFFKRTIQGVRLDRVRGGRQKYKRRIDAENSPYLNPQLAQPAKKPYNKIVSHLLVAEPEKIYAMPDPTVPDSDIKALTTLCDLADRELVVIIGWAKHIPGFSTLSLADQMSLLQSAWMEILILGVVYRSLSFEDELVYADDYIMDEDQSKLAGLLDLNNAILQLVKKYKSMKLEKEEFVTLKAIALANSDSMHIEDVEAVQKLQDVLHEALQDYEAGQHMEDPRRAGKMLMTLPLLRQTSTKAVQHFYNIKLEGKVPMHKLFLEMLEAKV
  modifying effect on the transcriptional stimulation activity of PPARα: did not show any significant modifying effect

Source: patent US20060148030A1, “Nuclear receptor err y 3” (FUJISAWA PHARMACEUTICAL CO., LTD, priority 2002, published 2006)
